This series in a line: protein stability index of a GFP-peptide fusion (yeast GPS) (PSI 1-4); higher = more stable; sorted into four equal gates, so the index is relative within each strain. In short, it runs like this: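 The protein stability index combines read frequencies across sorting gates, each weighted by its gate number and then summed. To obtain those frequencies, a pooled yeast library of GFP fusions to tiled 17-residue yeast protein peptides, on a plasmid also expressing Cherry, was grown to mid-log phase in leucine-free medium. The cells were sorted into four equal gates by GFP/Cherry ratio before plasmid amplification by PCR and Illumina sequencing.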

± gives the uncertainty stated by the source.

DTNSSKPKNTKENLSKS [SIR4]: the protein stability index reads like this: (doa10∆) 1.33 ± 0.21; (pdr5∆) 1.56 ± 0.12; (san1∆) 2.05 ± 0.15.

Turning to ESSKLMTVTKVSLPEGS [BRR2], the protein stability index came to 2.93 ± 0.22 (doa10∆), 2.33 ± 0.11 (pdr5∆), 3.19 ± 0.1 (san1∆) and 2.63 ± 0.073 (ubr1∆).

Consider NTTQDNGGDKELEMIGG [YCS4], for which the protein stability index is, setting by setting: (doa10∆) 3.26 ± 0.17; (pdr5∆) 3.06 ± 0.17; (san1∆) 2.46 ± 0.2; (ubr1∆) 3.26 ± 0.23.

For the sequence FNYVAVGDVSNLPYLDE [QCR2], the protein stability index came out at 3.2 ± 0.095 (doa10∆), 3.14 ± 0.11 (pdr5∆), 2.98 ± 0.13 (san1∆) and 3.11 ± 0.06 (ubr1∆).

As for YVQVRQPIFVAHTAGRY [RPS5], the protein stability index turned out to be 1.7 ± 0.064 (doa10∆), 1.84 ± 0.059 (pdr5∆), 1.89 ± 0.11 (san1∆) and 1.74 ± 0.068 (ubr1∆).

As for DKDAFIPKLKPAPINSL [SNU114], the protein stability index came out at 2.81 ± 0.069 (doa10∆), 2.88 ± 0.063 (pdr5∆), 2.83 ± 0.05 (san1∆) and 2.84 ± 0.054 (ubr1∆).

For the sequence IPPDQQRLIFAGKQLED [RPS31], the protein stability index by setting is: (doa10∆) 2.92 ± 0.077; (pdr5∆) 2.73 ± 0.06; (san1∆) 3.18 ± 0.038; (ubr1∆) 3.16 ± 0.035.

KAKSVVNDVEELGEIID [RMP1] returned a protein stability index (doa10∆) of 3.4 ± 0.14 and a protein stability index (san1∆) of 2.8 ± 0.26.

Sequence ELKKYMDKKILLNINGS [SMX2] returned a protein stability index (doa10∆) of 1.88 ± 0.059, a protein stability index (pdr5∆) of 2.25 ± 0.062, a protein stability index (san1∆) of 2 ± 0.094 and a protein stability index (ubr1∆) of 2 ± 0.045.

Consider AKSMAFLKEVLSDLSSP [YML103C/NUP188], for which the protein stability index was determined as 2.97 ± 0.079 (doa10∆), 3.1 ± 0.079 (pdr5∆), 2.79 ± 0.11 (san1∆) and 2.95 ± 0.065 (ubr1∆).

KITAKTQHEEEEEQDTG [IRR1]: the protein stability index runs as follows: (doa10∆) 2.69 ± 0.11; (pdr5∆) 3.16 ± 0.13; (san1∆) 2.82 ± 0.22.

GIKPPKGVLLYGPPGTG [RPT4]: the protein stability index runs as follows: (doa10∆) 2.73 ± 0.13; (pdr5∆) 2.62 ± 0.072; (san1∆) 2.22 ± 0.22; (ubr1∆) 2.01 ± 0.075.

Regarding DELITEGNEKLAAVPAA [RPP2A], the protein stability index is 2.71 ± 0.09 (doa10∆), 2.92 ± 0.099 (pdr5∆), 2.74 ± 0.083 (san1∆) and 2.78 ± 0.09 (ubr1∆).

Take IESQMRDLILTEYGRKY [PRP8]: the protein stability index by setting is: (doa10∆) 2.2 ± 0.1; (pdr5∆) 2.04 ± 0.073; (san1∆) 1.98 ± 0.098; (ubr1∆) 3.03 ± 0.092.

As for DLMDEELRKHAQKRVSN [SKI6], the protein stability index was found to be 3.38 ± 0.16 (doa10∆), 3.45 ± 0.11 (pdr5∆), 2.8 ± 0.085 (san1∆) and 3.21 ± 0.077 (ubr1∆).

Take GEIEIKPNEEEELGFWD [RPN13]: the protein stability index is, setting by setting: (doa10∆) 3.15 ± 0.13; (pdr5∆) 3.19 ± 0.097; (san1∆) 3.25 ± 0.074; (ubr1∆) 3.24 ± 0.094.

As to TVVGNASFGKNLQIRQL [DSN1], the protein stability index reads like this: (pdr5∆) 2.7 ± 0.17; (ubr1∆) 2.97 ± 0.2.

In the case of TYQTERFTKFSDTLKEF [YDL116W/NUP84], the protein stability index is, setting by setting: (doa10∆) 2.38 ± 0.047; (pdr5∆) 2.31 ± 0.056; (san1∆) 1.73 ± 0.12; (ubr1∆) 1.97 ± 0.046.

As to LSTSEDVSIEELLREWL [IRR1], the protein stability index worked out at 3.25 ± 0.16 (doa10∆), 2.31 ± 0.21 (pdr5∆) and 1.53 ± 0.15 (ubr1∆).

For NKSISDEITEDMFEMSD [SSN2], the protein stability index reads like this: (doa10∆) 3.03 ± 0.075; (pdr5∆) 3.1 ± 0.075; (san1∆) 2.82 ± 0.058; (ubr1∆) 3.1 ± 0.05.

Take EQHEEKAAEGEEKEEEN [QCR6]: the protein stability index is, setting by setting: (doa10∆) 3.25 ± 0.12; (pdr5∆) 2.92 ± 0.18; (san1∆) 2.98 ± 0.23; (ubr1∆) 3.23 ± 0.079.

On to KTVDSSIQPIESNIKMT [SSN2], for which the protein stability index (doa10∆) stood at 2.47 ± 0.082, the protein stability index (pdr5∆) is 2.72 ± 0.1, the protein stability index (san1∆) came to 2.86 ± 0.083 and the protein stability index (ubr1∆) was determined as 2.74 ± 0.052.

Turning to GRTGRAANEGTAVSFVS [PRP28], the protein stability index was determined as 2.7 ± 0.26 (doa10∆), 2.81 ± 0.27 (san1∆) and 2.7 ± 0.26 (ubr1∆).

SLDAREANFDLINIDTS [RPC40]: the protein stability index by setting is: (doa10∆) 3.5 ± 0.078; (pdr5∆) 3.22 ± 0.066; (san1∆) 3.18 ± 0.058; (ubr1∆) 3.04 ± 0.071.

KSLVQYIELLPNADDIR [DIS3]: the protein stability index by setting is: (doa10∆) 2.7 ± 0.15; (pdr5∆) 2.75 ± 0.077; (san1∆) 2.47 ± 0.069; (ubr1∆) 2.62 ± 0.064.

As for YKAQADTFYMNVESVGS [RPB3], the protein stability index is 2.75 ± 0.088 (doa10∆), 2.34 ± 0.058 (pdr5∆), 2.98 ± 0.068 (san1∆) and 3.07 ± 0.079 (ubr1∆).

EDSSILQSIVNEISRNG [PCI8]: the protein stability index reads like this: (doa10∆) 3.13 ± 0.13; (pdr5∆) 2.96 ± 0.1; (san1∆) 3 ± 0.054; (ubr1∆) 3.41 ± 0.09.

As to EIDPLTGMPISNDPDVN [BRN1], the protein stability index is, setting by setting: (san1∆) 2.87 ± 0.13; (ubr1∆) 3.03 ± 0.085.

With KMSDGFNGADIRNCATE [RPT4], the protein stability index is, setting by setting: (doa10∆) 3.43 ± 0.074; (pdr5∆) 3.47 ± 0.059; (san1∆) 3.35 ± 0.041; (ubr1∆) 3.3 ± 0.043.

In the case of SVLKDSDDKTRQLSPHT [PRE1], the protein stability index runs as follows: (doa10∆) 2.56 ± 0.088; (pdr5∆) 2.72 ± 0.11; (san1∆) 2.43 ± 0.099; (ubr1∆) 2.52 ± 0.067.

With QVQGQQQAQSFVGKKNT [SSN3], the protein stability index (doa10∆) was 2.55 ± 0.053, the protein stability index (pdr5∆) amounted to 2.69 ± 0.048, the protein stability index (san1∆) is 2.57 ± 0.052 and the protein stability index (ubr1∆) was 2.57 ± 0.041.

HRDAYSGGSVNLYHVTE [PRE2] yielded a protein stability index (doa10∆) of 2.81 ± 0.11, a protein stability index (pdr5∆) of 3.32 ± 0.086, a protein stability index (san1∆) of 3 ± 0.07 and a protein stability index (ubr1∆) of 3.03 ± 0.073.

Regarding AHLAEIQLNGGSISEKV [RPL3], where the note is “ubr1∆”, the protein stability index was 2.86 ± 0.12.

TFVERLPNETINDRNDR [DIS3]: the protein stability index (ubr1∆) came out at 2.28 ± 0.11.

With VKIGDIEKWTANLLPAR [RPS22A], the protein stability index came to 2.19 ± 0.076 (doa10∆), 2.65 ± 0.095 (pdr5∆), 2.56 ± 0.076 (san1∆) and 3.17 ± 0.087 (ubr1∆).

KWDNQSASRAKNMPVIY [RGR1]: the protein stability index runs as follows: (doa10∆) 2.86 ± 0.13; (pdr5∆) 2.41 ± 0.12; (ubr1∆) 3.39 ± 0.16.

Sequence TQKRLAASVVGVGKRKV [RPL19A] registered a protein stability index (doa10∆) of 1.33 ± 0.1, a protein stability index (pdr5∆) of 1.32 ± 0.16, a protein stability index (san1∆) of 1.13 ± 0.11 and a protein stability index (ubr1∆) of 1.79 ± 0.11.

Take GEALPNKFHKSIREDIL [SIR2]: the protein stability index reads like this: (doa10∆) 3.16 ± 0.14; (pdr5∆) 3.04 ± 0.11; (san1∆) 2.7 ± 0.096; (ubr1∆) 2.76 ± 0.07.

VSTAKFSGKYLKYLTKK [RPL22A]: the protein stability index is, setting by setting: (doa10∆) 3.17 ± 0.12; (pdr5∆) 3.29 ± 0.11; (san1∆) 3.41 ± 0.2; (ubr1∆) 3.26 ± 0.12.

(Values after the supplement of paper PMC9732359.)
